Test results as given in US6858775B1, “Method for generating split, non-transferable genes that are able to express an active protein product” (New England Biolabs, Inc., priority 1999, dated 2005).

Key:
[1] = tested on: E. coli ER2744; assay: Quantitative liquid culture assay (OD600) of E. coli ER2744 in valine / SM M9 medium; format: cell-based; details: 30° C.
Protocol: A quantitative liquid culture assay was performed to verify the results obtained from the plating assay. The liquid assay was performed as follows. A single colony was used to inoculate LB medium supplemented with kanamycin and ampicillin at 37° C. for 4 hours. Expression was induced by 0.3 mM IPTG and cell cultures were shifted to 30° C. for another 2 hrs. Then, 200 μL of equivalent OD600 8.0 was spun down, washed one time with M9 medium and resuspended in 200 μl M9 medium. 40 μl was aliquoted into 2 ml of appropriate culture medium and grown for 24-72 hours before its OD600 was measured. The concentration for valine is 100 μg/ml and for SM is 50 μg/ml. At 30° C., all transformed cells grew equally well in M9 minimum medium (FIG. 9B). […] To further compare the growth kinetics for trans-splicing mediated cell growth to wild type ALSII mediated cell growth, a time course study was performed (FIG. 9C).

[2] = tested on: E. coli ER2744; assay: Plate assay: rescue of E. coli ER2744 growth on valine or valine plus SM M9 plates; format: cell-based
Text: E. coli ER2744 strain was employed as an in vivo model system for assessing the activity of the herbicide resistant E. coli ALSII gene, genetically modified by a linker insertion between Q327 and C328. E. coli ER2744 is derived from wild type E. coli K12 that contains the active ALSI and ALSIII enzymes, but not an active ALSII. ALSI and ALSIII are two isoforms of ALS genes in E. coli, which are crucial for the synthesis of valine, isoleucine and leucine (LaRossa and Schloss, J. Biol. Chem. 259:8753-8757 (1984)). Their activity is sensitive to the valine feedback inhibition. Therefore, by saturating the growth medium with 100 μg/ml valine (Sigma, St. Louis, Mo.), ALSI and III will be inhibited and the cells will stop growing. By introducing a recombinant herbicide resistant ALSII (ALSIIm) into E. coli cells, their growth will be rescued since ALSII is resistant to valine inhibition.
Plate assays were conducted to examine the capability of ALSIIm-14 to rescue E. coli ER2744 from valine (100 μg/ml) or valine plus herbicide SM (50 μg/ml, Supelco Park, Bellefonte, Pa.) saturated M9 minimum medium plate (Sambrook et al., (1989)). The M9 medium contains 2 μg/ml Thiamin, 2 mM MgSO4, 0.1 mM CaCl2, 0.2% glucose, 50 μg/ml of kanamycin, 100 μg/ml of ampicillin and 0.3 mM IPTG. For the plating assay, 100 μl of 25 mg/ml Valine with or without 50 μl of 25 μg/ml Sulfometuron methyl (SM) was spread on M9 selection plate. To assay bacterial growth, overnight cultures were streaked on M9 plates with or without valine and/or SM. The plates were incubated at various temperatures (as indicated in FIG. 7) for 48 to 72 hrs before the pictures were taken. On the plate supplemented with valine, cells expressing either ALSII, ALSIIm or ALSIIm-14 were able to grow (FIG. 7-a). However, when both valine and SM was applied, only strains expressing herbicide-resistant ALSIIm or ALSIIm-14 were able to grow (FIG. 7-b).
The next step was to determine whether the spliced product, as the result of trans-splicing of the ALSIIm (ALSIIm(N)—INn and ALSIIm(C)—INc) fusion proteins, would render E. coli ER2744 resistant to valine and SM. The first experiment was to test the effect of co-expression of ALSIIm(N)—INn and ALSIIm(C)—INc fusion proteins on cell growth in valine saturated M9 minimum medium. In a plating assay (see Section 4.), all transformed cells grew well on M9 medium in the absence of valine (FIG. 9A-a). […] (FIG. 9A-b, 9A-c) in the presence of valine. […] (FIG. 9A-c) or lower temperatures (data not shown) from a valine plate.

Row | Molecule | cell growth in valine saturated M9 liquid medium ([1]; 100 μg/ml valine) | cell growth on M9 plate in the presence of valine at both 30° C. and 37° C. ([2]; 100 μg/ml valine) | cell growth in valine M9 liquid medium containing SM ([1]; 100 μg/ml valine, 50 μg/ml SM) | growth rate, time course study ([1]; M9 medium with 100 μg/ml valine) | cell growth on M9 plate with valine and herbicide SM ([2]; 100 μg/ml valine and 50 μg/ml SM, 30° C., 0.3 mM IPTG) | cell growth on M9 plate supplemented with valine ([2]; 100 μg/ml valine, 30° C., 0.3 mM IPTG)
1 | ALSIIm(N)—INn: fusion of ALSIIm N-terminal 327 residues and Ssp DnaE intein N-terminal 123 residues | did not rescue cell growth | did not grow | – | – | – | –
2 | ALSII: wild type E. coli acetolactate synthase II expressed from plasmid pALSII (protein) MNGAQWVVHALRAQGVNTVFGYPGGAIMPVYDALYDGGVEHLLCRHEQGAAMAAIGYARATGKTGVCIATSGPGATNLITGLADALLDSIPVVAITGQVSAPFIGTDAFQEVDVLGLSLACTKHSFLVQSLEELPRIMAEAFDVACSGRPGPVLVDIPKDIQLASGDLEPWFTTVENEVTFPHAEVEQARQMLAKAQKPMLYVGGGVGMAQAVPALREFLAATKMPATCTLKGLGAVEADYPYYLGMLGMHGTKAANFAVQECDLLIAVGARFDDRVTGKLNTFAPHASVIHMDIDPAEMNKLRQAHVALQGDLNALLPALQQPLNQYDWQQHCAQLRDEHSWRYDHPGDAIYAPLLLKQLSDRKPADCVVTTDVGQHQMWAAQHIAHTRPENFITSSGLGTMGFGLPAAVGAQVARPNDTVVCISGDGSFMMNVQELGTVKRKQLPLKIVLLDNQRLGMVRQWQQLFFQERYSETTLTDNPDFLMLASAFGIHGQHITRKDQVEAALDTMLNSDGPYLLHVSIDELENVWPLVPPGASNSEMLEKLS | allowed cells to grow | rescued the cells growth | no growth | fastest growth rate | could not rescue cell growth | able to grow
